This note sets out measurements from patent publication US20250145729A1 (DENALI THERAPEUTICS, published 2025).

Test [1] has as its target T1, circularly permuted human TfR apical domain (human).
T1 construct: TfR residues 326-379 stand N-terminal to 194-296, loop 297-325 deleted; also called huTfR Apical Domain
T1 chain: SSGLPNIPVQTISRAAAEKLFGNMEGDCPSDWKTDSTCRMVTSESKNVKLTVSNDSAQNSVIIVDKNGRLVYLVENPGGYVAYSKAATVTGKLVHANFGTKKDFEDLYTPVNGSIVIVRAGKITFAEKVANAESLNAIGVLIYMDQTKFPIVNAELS
The experiment in a line: SPR, supernatant, anti-Fab capture. The protocol: (§1) Clones were expressed in HEK293 cells. Supernatants were captured for SPR by GE Healthcare anti-human Fab capture kit and the affinity to human and cyno TfR apical domain was measured (Table 30). The clones in Table 30 were bivalent and each TfR-binding Fc polypeptide also contained P329G and LALA mutations.
(SPR reads the build-up and loss of mass on a sensor chip optically.)

For test [2], the target named is T2, circularly permuted cyno TfR apical domain (cynomolgus monkey).
T2 construct: same design as the human construct; also called cyTfR Apical Domain; cynomolgus TfR apical domain
T2 chain: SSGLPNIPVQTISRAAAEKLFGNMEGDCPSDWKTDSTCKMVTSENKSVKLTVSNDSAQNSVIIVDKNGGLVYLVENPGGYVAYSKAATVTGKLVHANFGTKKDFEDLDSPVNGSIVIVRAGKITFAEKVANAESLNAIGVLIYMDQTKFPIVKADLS
Briefly: SPR, supernatant, anti-Fab capture. The method, then:
as §1

B1: 42.8.128 (Fc fusion)
chain: APEAAGGPSVFLFPPKPKDTLMISRTPEVTCVVVDVSHEDPEVKFNWYVDGVEVHNAKTKPREEQYNSTYRVVSVLTVLHQDWLNGKEYKCKVSNKALGAPIEKTISKAKGQPREPQVYTLPPSRDELTKNQVSLTCLVKGFYPSDIAVEWFYGASKETNYKTTPPVLDSDGSFFLYSKLTVDKSRWQQGNLFACEVMHEALHNHYTYKLLSLSPGK
notes: bivalent; P329G+LALA
With B1, the figures for the Kd in test [1] and in test [2] were 0.654 µM and 5.45 µM, respectively.

B2: 42.8.151 (Fc fusion)
chain: APEAAGGPSVFLFPPKPKDTLMISRTPEVTCVVVDVSHEDPEVKFNWYVDGVEVHNAKTKPREEQYNSTYRVVSVLTVLHQDWLNGKEYKCKVSNKALGAPIEKTISKAKGQPREPQVYTLPPSRDELTKNQVSLTCLVKGFYPSDIAVEWFYDGSKENNYKTTPPVLDSDGSFFLYSKLTVDKSRWQQGNLFACEVMHEALHNHYTYKLLSLSPGK
notes: bivalent; P329G+LALA
Turning to B2, the Kd was 1.51 µM in test [1] and 13.1 µM in test [2].

B3: 42.8.137 (Fc fusion)
chain: APEAAGGPSVFLFPPKPKDTLMISRTPEVTCVVVDVSHEDPEVKFNWYVDGVEVHNAKTKPREEQYNSTYRVVSVLTVLHQDWLNGKEYKCKVSNKALGAPIEKTISKAKGQPREPQVYTLPPSRDELTKNQVSLTCLVKGFYPSDIAVEWFYGDQKLTNYKTTPPVLDSDGSFFLYSKLTVDKSRWQQGNLFACEVMHEALHNHYTYKLLSLSPGK
notes: bivalent; P329G+LALA
With B3, the Kd in test [1] was determined as 1.18 µM; in test [2], 12.6 µM.

B4: 42.8.173 (Fc fusion)
chain: APEAAGGPSVFLFPPKPKDTLMISRTPEVTCVVVDVSHEDPEVKFNWYVDGVEVHNAKTKPREEQYNSTYRVVSVLTVLHQDWLNGKEYKCKVSNKALGAPIEKTISKAKGQPREPQVYTLPPSRDELTKNQVSLTCLVKGFYPSDIAVEWFYDDQKLTNYKTTPPVLDSDGSFFLYSKLTVDKSRWQQGNLFACEVMHEALHNHYTYKLLSLSPGK
notes: bivalent; P329G+LALA
With B4, the Kd in test [1] is 0.603 µM; in test [2], 6.72 µM.

B5: 42.8.143 (Fc fusion)
chain: APEAAGGPSVFLFPPKPKDTLMISRTPEVTCVVVDVSHEDPEVKFNWYVDGVEVHNAKTKPREEQYNSTYRVVSVLTVLHQDWLNGKEYKCKVSNKALGAPIEKTISKAKGQPREPQVYTLPPSRDELTKNQVSLTCLVKGFYPSDIAVEWFYGDSKLTNYKTTPPVLDSDGSFFLYSKLTVDKSRWQQGNLFACEVMHEALHNHYTYKLLSLSPGK
notes: bivalent; P329G+LALA
Regarding B5, the values for the Kd in test [1] and in test [2] were 0.454 µM and 5.18 µM, respectively.

B6: 42.8.159 (Fc fusion)
chain: APEAAGGPSVFLFPPKPKDTLMISRTPEVTCVVVDVSHEDPEVKFNWYVDGVEVHNAKTKPREEQYNSTYRVVSVLTVLHQDWLNGKEYKCKVSNKALGAPIEKTISKAKGQPREPQVYTLPPSRDELTKNQVSLTCLVKGFYPSDIAVEWFYDAQKESNYKTTPPVLDSDGSFFLYSKLTVDKSRWQQGNLFACEVMHEALHNHYTYKLLSLSPGK
notes: bivalent; P329G+LALA
Turning to B6, the values for the equilibrium dissociation constant (Kd) in test [1] and in test [2] were 1.32 µM and 10.8 µM, respectively.

B7: 42.8.149 (Fc fusion)
chain: APEAAGGPSVFLFPPKPKDTLMISRTPEVTCVVVDVSHEDPEVKFNWYVDGVEVHNAKTKPREEQYNSTYRVVSVLTVLHQDWLNGKEYKCKVSNKALGAPIEKTISKAKGQPREPQVYTLPPSRDELTKNQVSLTCLVKGFYPSDIAVEWFYDGQKLTNYKTTPPVLDSDGSFFLYSKLTVDKSRWQQGNLFACEVMHEALHNHYTYKLLSLSPGK
notes: bivalent; P329G+LALA
Turning to B7, the figures for the Kd in test [1] and in test [2] were 2.38 µM and 16 µM, respectively.

B8: 42.8.166 (Fc fusion)
chain: APEAAGGPSVFLFPPKPKDTLMISRTPEVTCVVVDVSHEDPEVKFNWYVDGVEVHNAKTKPREEQYNSTYRVVSVLTVLHQDWLNGKEYKCKVSNKALGAPIEKTISKAKGQPREPQVYTLPPSRDELTKNQVSLTCLVKGFYPSDIAVEWFYDASKLNNYKTTPPVLDSDGSFFLYSKLTVDKSRWQQGNLFACEVMHEALHNHYTYKLLSLSPGK
notes: bivalent; P329G+LALA
With B8, the figures for the Kd in test [1] and in test [2] were 0.855 µM and 5 µM, respectively.

B9: 42.8.139 (Fc fusion)
chain: APEAAGGPSVFLFPPKPKDTLMISRTPEVTCVVVDVSHEDPEVKFNWYVDGVEVHNAKTKPREEQYNSTYRVVSVLTVLHQDWLNGKEYKCKVSNKALGAPIEKTISKAKGQPREPQVYTLPPSRDELTKNQVSLTCLVKGFYPSDIAVEWFYGDSKENNYKTTPPVLDSDGSFFLYSKLTVDKSRWQQGNLFACEVMHEALHNHYTYKLLSLSPGK
notes: bivalent; P329G+LALA
For B9, the Kd in test [1] is 0.85 µM; in test [2], 6.1 µM.

B10: 42.8.153 (Fc fusion)
chain: APEAAGGPSVFLFPPKPKDTLMISRTPEVTCVVVDVSHEDPEVKFNWYVDGVEVHNAKTKPREEQYNSTYRVVSVLTVLHQDWLNGKEYKCKVSNKALGAPIEKTISKAKGQPREPQVYTLPPSRDELTKNQVSLTCLVKGFYPSDIAVEWFYDGSKESNYKTTPPVLDSDGSFFLYSKLTVDKSRWQQGNLFACEVMHEALHNHYTYKLLSLSPGK
notes: bivalent; P329G+LALA
In the case of B10, the dissociation constant Kd was determined as 1.84 µM in test [1] and 14.5 µM in test [2].

B11: 42.8.167 (Fc fusion)
chain: APEAAGGPSVFLFPPKPKDTLMISRTPEVTCVVVDVSHEDPEVKFNWYVDGVEVHNAKTKPREEQYNSTYRVVSVLTVLHQDWLNGKEYKCKVSNKALGAPIEKTISKAKGQPREPQVYTLPPSRDELTKNQVSLTCLVKGFYPSDIAVEWFYDASKLTNYKTTPPVLDSDGSFFLYSKLTVDKSRWQQGNLFACEVMHEALHNHYTYKLLSLSPGK
notes: bivalent; P329G+LALA
With B11, the Kd in test [1] stood at 0.502 µM; in test [2], 6.59 µM.

B12: 42.8.157 (Fc fusion)
chain: APEAAGGPSVFLFPPKPKDTLMISRTPEVTCVVVDVSHEDPEVKFNWYVDGVEVHNAKTKPREEQYNSTYRVVSVLTVLHQDWLNGKEYKCKVSNKALGAPIEKTISKAKGQPREPQVYTLPPSRDELTKNQVSLTCLVKGFYPSDIAVEWFYDAQKENNYKTTPPVLDSDGSFFLYSKLTVDKSRWQQGNLFACEVMHEALHNHYTYKLLSLSPGK
notes: bivalent; P329G+LALA
In the case of B12, the Kd in test [1] stood at 2.1 µM; in test [2], 15.5 µM.

B13: 42.8.163 (Fc fusion)
chain: APEAAGGPSVFLFPPKPKDTLMISRTPEVTCVVVDVSHEDPEVKFNWYVDGVEVHNAKTKPREEQYNSTYRVVSVLTVLHQDWLNGKEYKCKVSNKALGAPIEKTISKAKGQPREPQVYTLPPSRDELTKNQVSLTCLVKGFYPSDIAVEWFYDASKENNYKTTPPVLDSDGSFFLYSKLTVDKSRWQQGNLFACEVMHEALHNHYTYKLLSLSPGK
notes: bivalent; P329G+LALA
For the molecule B13, the Kd in test [1] is 1.38 µM; in test [2] it was 7.82 µM.

B14: 42.8.152 (Fc fusion)
chain: APEAAGGPSVFLFPPKPKDTLMISRTPEVTCVVVDVSHEDPEVKFNWYVDGVEVHNAKTKPREEQYNSTYRVVSVLTVLHQDWLNGKEYKCKVSNKALGAPIEKTISKAKGQPREPQVYTLPPSRDELTKNQVSLTCLVKGFYPSDIAVEWFYDGSKETNYKTTPPVLDSDGSFFLYSKLTVDKSRWQQGNLFACEVMHEALHNHYTYKLLSLSPGK
notes: bivalent; P329G+LALA
As to B14, the figures for the equilibrium dissociation constant (Kd) in test [1] and in test [2] were 1.02 µM and 10.9 µM, respectively.

B15: 42.8.144 (Fc fusion)
chain: APEAAGGPSVFLFPPKPKDTLMISRTPEVTCVVVDVSHEDPEVKFNWYVDGVEVHNAKTKPREEQYNSTYRVVSVLTVLHQDWLNGKEYKCKVSNKALGAPIEKTISKAKGQPREPQVYTLPPSRDELTKNQVSLTCLVKGFYPSDIAVEWFYGDSKLSNYKTTPPVLDSDGSFFLYSKLTVDKSRWQQGNLFACEVMHEALHNHYTYKLLSLSPGK
notes: bivalent; P329G+LALA
For the molecule B15, the Kd in test [1] was determined as 0.47 µM; in test [2], 3.87 µM.

B16: 42.8.156 (Fc fusion)
chain: APEAAGGPSVFLFPPKPKDTLMISRTPEVTCVVVDVSHEDPEVKFNWYVDGVEVHNAKTKPREEQYNSTYRVVSVLTVLHQDWLNGKEYKCKVSNKALGAPIEKTISKAKGQPREPQVYTLPPSRDELTKNQVSLTCLVKGFYPSDIAVEWFYDGSKLSNYKTTPPVLDSDGSFFLYSKLTVDKSRWQQGNLFACEVMHEALHNHYTYKLLSLSPGK
notes: bivalent; P329G+LALA
With B16, the Kd is 1.39 µM in test [1] and 13.3 µM in test [2].

B17: 42.8.162 (Fc fusion)
chain: APEAAGGPSVFLFPPKPKDTLMISRTPEVTCVVVDVSHEDPEVKFNWYVDGVEVHNAKTKPREEQYNSTYRVVSVLTVLHQDWLNGKEYKCKVSNKALGAPIEKTISKAKGQPREPQVYTLPPSRDELTKNQVSLTCLVKGFYPSDIAVEWFYDAQKLSNYKTTPPVLDSDGSFFLYSKLTVDKSRWQQGNLFACEVMHEALHNHYTYKLLSLSPGK
notes: bivalent; P329G+LALA
Turning to B17, the Kd in test [1] came out at 1.19 µM; in test [2], 23.2 µM.

B18: 42.8.168 (Fc fusion)
chain: APEAAGGPSVFLFPPKPKDTLMISRTPEVTCVVVDVSHEDPEVKFNWYVDGVEVHNAKTKPREEQYNSTYRVVSVLTVLHQDWLNGKEYKCKVSNKALGAPIEKTISKAKGQPREPQVYTLPPSRDELTKNQVSLTCLVKGFYPSDIAVEWFYDASKLSNYKTTPPVLDSDGSFFLYSKLTVDKSRWQQGNLFACEVMHEALHNHYTYKLLSLSPGK
notes: bivalent; P329G+LALA
Regarding B18, the Kd in test [1] came out at 0.531 µM; in test [2], 5.7 µM.

B19: 42.8.150 (Fc fusion)
chain: APEAAGGPSVFLFPPKPKDTLMISRTPEVTCVVVDVSHEDPEVKFNWYVDGVEVHNAKTKPREEQYNSTYRVVSVLTVLHQDWLNGKEYKCKVSNKALGAPIEKTISKAKGQPREPQVYTLPPSRDELTKNQVSLTCLVKGFYPSDIAVEWFYDGQKLSNYKTTPPVLDSDGSFFLYSKLTVDKSRWQQGNLFACEVMHEALHNHYTYKLLSLSPGK
notes: bivalent; P329G+LALA
On to B19, for which the Kd in test [1] stood at 2.65 µM; in test [2], 11.8 µM.

By Kd is commonly meant the concentration at which binding is half-saturated. Read a low Kd as higher affinity.
